One data set addresses GATA-3 (UniProt P23772). As to the kind of experiment: cell_activity. Particulars: NIH3T3 luciferase.
The target of the next data set is GATA-2 (UniProt O09100). As to the kind of experiment: cell_activity. The note with it: NIH3T3 luciferase.
Chain of GATA-2 (O09100 whole entry): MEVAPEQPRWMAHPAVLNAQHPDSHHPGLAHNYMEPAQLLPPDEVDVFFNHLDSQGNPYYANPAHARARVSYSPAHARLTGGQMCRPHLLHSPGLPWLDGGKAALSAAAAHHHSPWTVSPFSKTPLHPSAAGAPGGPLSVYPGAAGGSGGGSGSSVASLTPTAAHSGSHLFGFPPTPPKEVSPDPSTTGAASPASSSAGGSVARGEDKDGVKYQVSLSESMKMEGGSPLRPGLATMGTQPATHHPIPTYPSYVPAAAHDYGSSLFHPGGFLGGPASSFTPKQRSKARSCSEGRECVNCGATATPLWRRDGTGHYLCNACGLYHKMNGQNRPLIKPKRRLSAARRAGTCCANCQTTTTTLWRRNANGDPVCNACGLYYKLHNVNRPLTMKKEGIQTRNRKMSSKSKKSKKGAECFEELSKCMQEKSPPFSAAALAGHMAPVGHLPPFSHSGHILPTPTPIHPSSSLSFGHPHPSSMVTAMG

Chain of GATA-3 (P23772 whole entry): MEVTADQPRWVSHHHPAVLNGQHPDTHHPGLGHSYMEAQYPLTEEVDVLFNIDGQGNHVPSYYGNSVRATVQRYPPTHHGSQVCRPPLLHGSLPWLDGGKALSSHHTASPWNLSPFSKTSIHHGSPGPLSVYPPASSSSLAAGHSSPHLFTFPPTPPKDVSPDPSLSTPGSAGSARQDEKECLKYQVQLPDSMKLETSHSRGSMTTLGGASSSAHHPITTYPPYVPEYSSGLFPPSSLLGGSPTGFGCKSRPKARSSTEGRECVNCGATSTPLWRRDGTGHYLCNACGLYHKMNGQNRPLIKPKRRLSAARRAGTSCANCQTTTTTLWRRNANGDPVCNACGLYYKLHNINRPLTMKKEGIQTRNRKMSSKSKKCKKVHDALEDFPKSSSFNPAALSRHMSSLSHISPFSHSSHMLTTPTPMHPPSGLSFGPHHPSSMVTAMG

Regarding “PPAR-gamma2 promoter -603 to +62 luciferase reporter”, the activity (fold suppression) with GATA-3 and with GATA-2 was 5 each time.

For the origin of these results see patent US20010046966.
